Earlier results in article PMC12224906.

Biological target: eIF5B CTD (Homo sapiens) (UniProt O60841)
Chain of UniProt O60841 (O60841 1076-1220): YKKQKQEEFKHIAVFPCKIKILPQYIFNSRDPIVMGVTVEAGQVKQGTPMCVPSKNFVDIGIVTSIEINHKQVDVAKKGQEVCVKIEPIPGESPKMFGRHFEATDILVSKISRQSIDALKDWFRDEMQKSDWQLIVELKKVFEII

Kd: 500 nM
Substance: eIF5 CTT (from UniProt P55010)
